Literature values, collected in patent US20200306346A1 (ADOCIA, priority 2017, published 2020).

Key:
[1] = test system: mammalian cells in culture
patients = details: in vivo

Substance | cytotoxicity [1] | inflammatory responses at the first dose (patients)
fibrillated human glucagon: "potentially dangerous nature of these fibrils: fibrillated human glucagon being cytotoxic in mammalian cells in culture" | cytotoxic | 
pegnivacogin |  | 3 out of 640
